Experiments:
HeLa Kyoto [1] = assay: solubility in G1/S (NP-40 vs SDS abundance) (log2 ratio); higher = more soluble; conditions: cell cycle stage: G1/S
HeLa Kyoto [2] = assay: melting temperature (median over replicates), in situ; higher = more thermally stable
HeLa Kyoto [3] = assay: solubility change mitosis vs G1/S (difference of NP-40 vs SDS log2 ratios) (log2 ratio difference); higher = more soluble in mitosis
HeLa Kyoto [4] = assay: thermal stability score vs G1/S (z-score of summed log2 fold changes over temperatures); higher = more thermally stable than in G1/S
[5] = cell cycle stage: early G1 (4.5 h after nocodazole release)
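Throughout, for melting temperature (median over replicates), in situ: HeLa Kyoto cells synchronized by double thymidine or nocodazole block, proteins quantified by TMT10plex mass spectrometry, three independent biological replicates.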
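Throughout, for solubility change mitosis vs G1/S (difference of NP-40 vs SDS log2 ratios): synchronized HeLa Kyoto cells (double thymidine block for G1/S, nocodazole release for mitosis), protein amounts in NP-40 versus SDS lysates quantified by mass spectrometry, three biological replicates.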
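Throughout, for solubility in G1/S (NP-40 vs SDS abundance): HeLa Kyoto cells arrested at G1/S by double thymidine block, proteins quantified by TMT10plex mass spectrometry in mild NP-40 versus SDS extracts, three biological replicates.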
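Throughout, for thermal stability score vs G1/S (z-score of summed log2 fold changes over temperatures): synchronized HeLa Kyoto cells, proteins quantified by TMT10plex mass spectrometry, three biological replicates, mitosis taken 0.5 h after nocodazole release, G1/S directly after double thymidine block.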

Sequence	solubility in G1/S (log2) (HeLa Kyoto [1])	melting temperature (HeLa Kyoto [2]; cell cycle stage: G1/S)	melting temperature (HeLa Kyoto [2]; cell cycle stage: mitosis)	solubility change mitosis (log2) (HeLa Kyoto [3])	thermal stability score (HeLa Kyoto [4]; [5])	thermal stability score (HeLa Kyoto [4]; cell cycle stage: mitosis)
MANLLKTVVTGCSCPLLSNLGSCKGLRVKKDFLRTFYTHQELWCKAPVKPGIPYKQLTVGVPKEIFQNEKRVALSPAGVQNLVKQGFNVVVESGAGEASKFSDDHYRVAGAQIQGAKEVLASDLVVKVRAPMVNPTLGVHEADLLKTSGTLISFIYPAQNPELLNKLSQRKTTVLAMDQVPRVTIAQGYDALSSMANIAGYKAVVLAANHFGRFFTGQITAAGKVPPAKILIVGGGVAGLASAGAAKSMGAIVRGFDTRAAALEQFKSLGAEPLEVDLKESGEGQGGYAKEMSKEFIEAEMKLFAQQCKEVDILISTALIPGKKAPVLFNKEMIESMKEGSVVVDLAAEAGGNFETTKPGELYIHKGITHIGYTDLPSRMATQASTLYSNNITKLLKAISPDKDNFYFDVKDDFDFGTMGHVIRGTVVMKDGKVIFPAPTPKNIPQGAPVKQKTVAELEAEKAATITPFRKTMSTASAYTAGLTGILGLGIAAPNLAFSQMVTTFGLAGIVGYHTVWGVTPALHSPLMSVTNAISGLTAVGGLALMGGHLYPSTTSQGLAALAAFISSVNIAGGFLVTQRMLDMFKRPTDPPEYNYLYLLPAGTFVGGYLAALYSGYNIEQIMYLGSGLCCVGALAGLSTQGTARLGNALGMIGVAGGLAATLGVLKPGPELLAQMSGAMALGGTIGLTIAKRIQISDLPQLVAAFHSLVGLAAVLTCIAEYIIEYPHFATDAAANLTKIVAYLGTYIGGVTFSGSLIAYGKLQGLLKSAPLLLPGRHLLNAGLLAASVGGIIPFMVDPSFTTGITCLGSVSALSAVMGVTLTAAIGGADMPVVITVLNSYSGWALCAEGFLLNNNLLTIVGALIGSSGAILSYIMCVAMNRSLANVILGGYGTTSTAGGKPMEISGTHTEINLDNAIDMIREANSIIITPGYGLCAAKAQYPIADLVKMLTEQGKKVRFGIHPVAGRMPGQLNVLLAEAGVPYDIVLEMDEINHDFPDTDLVLVIGANDTVNSAAQEDPNSIIAGMPVLEVWKSKQVIVMKRSLGVGYAAVDNPIFYKPNTAMLLGDAKKTCDALQAKVRESYQK [NNT]	0.11	53.4 °C	53.4 °C	-0.0884	-1.09	-1.47
MANQVNGNAVQLKEEEEPMDTSSVTHTEHYKTLIEAGLPQKVAERLDEIFQTGLVAYVDLDERAIDALREFNEEGALSVLQQFKESDLSHVQNKSAFLCGVMKTYRQREKQGSKVQESTKGPDEAKIKALLERTGYTLDVTTGQRKYGGPPPDSVYSGVQPGIGTEVFVGKIPRDLYEDELVPLFEKAGPIWDLRLMMDPLSGQNRGYAFITFCGKEAAQEAVKLCDSYEIRPGKHLGVCISVANNRLFVGSIPKNKTKENILEEFSKVTEGLVDVILYHQPDDKKKNRGFCFLEYEDHKSAAQARRRLMSGKVKVWGNVVTVEWADPVEEPDPEVMAKVKVLFVRNLATTVTEEILEKSFSEFGKLERVKKLKDYAFVHFEDRGAAVKAMDEMNGKEIEGEEIEIVLAKPPDKKRKERQAARQASRSTAYEDYYYHPPPRMPPPIRGRGRGGGRGGYGYPPDYYGYEDYYDDYYGYDYHDYRGGYEDPYYGYDDGYAVRGRGGGRGGRGAPPPPRGRGAPPPRGRAGYSQRGAPLGPPRGSRGGRGGPAQQQRGRGSRGSRGNRGGNVGGKRKADGYNQPDSKRRQTNNQQNWGSQPIAQQPLQQGGDYSGNYGYNNDNQEFYQDTYGQQWK [HNRNPR]	-0.12	47.8 °C	49.4 °C	0.234	2.99	8.2
MAPAGCCCCCCFWGGAVAAAGAARRVLLLLLLGVLSAGLRPGALATEHYSPLSLLKQELQHRQQQEAPAGGGGCSPQSGDWGDQYSAECGESSFLNFHDSDCEPKGSSPCDSLLSLNTEKILSQAKSIAEQKRFPFATDNDSTNEELAIAYVLIGSGLYDEAIRHFSTMLQEEPDLVSAIYGRGIAYGKKGLHDIKNAELALFELSRVITLEPDRPEVFEQRAEILSPLGRINEAVNDLTKAIQLQPSARLYRHRGTLYFISEDYATAHEDFQQSLELNKNQPIAMLYKGLTFFHRGLLKEAIESFKEALKQKVDFIDAYKSLGQAYRELGNFEAATESFQKALLLNQNHVQTLQLRGMMLYHHGSLQEALKNFKRCLQLEPYNEVCQYMKGLSHVAMGQFYEGIKAQTKVMLNDPLPGQKASPEYLKVKYLREYSRYLHAHLDTPLTEYNIDVDLPGSFKDHWAKNLPFLIEDYEEQPGLQPHIKDVLHQNFESYKPEVQELICVADRLGSLMQYETPGFLPNKRIHRAMGLAALEVMQAVQRTWTNSKVRMNGKTRLMQWRDMFDIAVKWRRIADPDQPVLWLDQMPARSLSRGFNNHINLIRGQVINMRYLEYFEKILHFIKDRILVYHGANNPKGLLEVREALEKVHKVEDLLPIMKQFNTKTKDGFTVNTKVPSLKDQGKEYDGFTITITGDKVGNILFSVETQTTEERTQLYHAEIDALYKDLTAKGKVLILSSEFGEADAVCNLILSLVYYFYNLMPLSRGSSVIAYSVIVGALMASGKEVAGKIPKGKLVDFEAMTAPGSEAFSKVAKSWMNLKSISPSYKTLPSVSETFPTLRSMIEVLNTDSSPRCLKKL [TTC13]	0.165	52.7 °C	53.3 °C	-0.163	1.53	0.195
MAPAMQPAEIQFAQRLASSEKGIRDRAVKKLRQYISVKTQRETGGFSQEELLKIWKGLFYCMWVQDEPLLQEELANTIAQLVHAVNNSAAQHLFIQTFWQTMNREWKGIDRLRLDKYYMLIRLVLRQSFEVLKRNGWEESRIKVFLDVLMKEVLCPESQSPNGVRFHFIDIYLDELSKVGGKELLADQNLKFIDPFCKIAAKTKDHTLVQTIARGVFEAIVDQSPFVPEETMEEQKTKVGDGDLSAEEIPENEVSLRRAVSKKKTALGKNHSRKDGLSDERGRDDCGTFEDTGPLLQFDYKAVADRLLEMTSRKNTPHFNRKRLSKLIKKFQDLSEGSSISQLSFAEDISADEDDQILSQGKHKKKGNKLLEKTNLEKEKGSRVFCVEEEDSESSLQKRRRKKKKKHHLQPENPGPGGAAPSLEQNRGREPEASGLKALKARVAEPGAEATSSTGEESGSEHPPAVPMHNKRKRPRKKSPRAHREMLESAVLPPEDMSQSGPSGSHPQGPRGSPTGGAQLLKRKRKLGVVPVNGSGLSTPAWPPLQQEGPPTGPAEGANSHTTLPQRRRLQKKKAGPGSLELCGLPSQKTASLKKRKKMRVMSNLVEHNGVLESEAGQPQALGSSGTCSSLKKQKLRAESDFVKFDTPFLPKPLFFRRAKSSTATHPPGPAVQLNKTPSSSKKVTFGLNRNMTAEFKKTDKSILVSPTGPSRVAFDPEQKPLHGVLKTPTSSPASSPLVAKKPLTTTPRRRPRAMDFF [RRP1B]	-2.01	47.9 °C	49.5 °C	1.63	1.95	1.97
MAPDSDPFPEGPLLKLLPLDARDRGTQRCRLGPAALHALGARLGSAVKISLPDGGSCLCTAWPRRDGADGFVQLDPLCASPGAAVGASRSRRSLSLNRLLLVPCPPLRRVAVWPVLRERAGAPGARNTAAVLEAAQELLRNRPISLGHVVVAPPGAPGLVAALHIVGGTPSPDPAGLVTPRTRVSLGGEPPSEAQPQPEVPLGGLSEAADSLRELLRLPLRYPRALTALGLAVPRGVLLAGPPGVGKTQLVRAVAREAGAELLAVSAPALQGSRPGETEENVRRVFQRARELASRGPSLLFLDEMDALCPQRGSRAPESRVVAQVLTLLDGASGDREVVVVGATNRPDALDPALRRPGRFDREVVIGTPTLKQRKEILQVITSKMPISSHVDLGLLAEMTVGYVGADLTALCREAAMHALLHSEKNQDNPVIDEIDFLEAFKNIQPSSFRSVIGLMDIKPVDWEEIGGLEDVKLKLKQSIEWPLKFPWEFVRMGLTQPKGVLLYGPPGCAKTTLVRALATSCHCSFVSVSGADLFSPFVGDSEKVLSQIFRQARASTPAILFLDEIDSILGARSASKTGCDVQERVLSVLLNELDGVGLKTIERRGSKSSQQEFQEVFNRSVMIIAATNRPDVLDTALLRPGRLDKIIYIPPPDHKGRLSILKVCTKTMPIGPDVSLENLAAETCFFSGADLRNLCTEAALLALQENGLDATTVKQEHFLKSLKTVKPSLSCKDLALYENLFKKEGFSNVEGI [SPATA5L1]	-0.0544	52.8 °C	51.2 °C	0.095	-0.664	-2.04
MAPGCKTELRSVTNGQSNQPSNEGDAIKVFVRIRPPAERSGSADGEQNLCLSVLSSTSLRLHSNPEPKTFTFDHVADVDTTQESVFATVAKSIVESCMSGYNGTIFAYGQTGSGKTFTMMGPSESDNFSHNLRGVIPRSFEYLFSLIDREKEKAGAGKSFLCKCSFIEIYNEQIYDLLDSASAGLYLREHIKKGVFVVGAVEQVVTSAAEAYQVLSGGWRNRRVASTSMNRESSRSHAVFTITIESMEKSNEIVNIRTSLLNLVDLAGSERQKDTHAEGMRLKEAGNINRSLSCLGQVITALVDVGNGKQRHVCYRDSKLTFLLRDSLGGNAKTAIIANVHPGSRCFGETLSTLNFAQRAKLIKNKAVVNEDTQGNVSQLQAEVKRLKEQLAELASGQTPPESFLTRDKKKTNYMEYFQEAMLFFKKSEQEKKSLIEKVTQLEDLTLKKEKFIQSNKMIVKFREDQIIRLEKLHKESRGGFLPEEQDRLLSELRNEIQTLREQIEHHPRVAKYAMENHSLREENRRLRLLEPVKRAQEMDAQTIAKLEKAFSEISGMEKSDKNQQGFSPKAQKEPCLFANTEKLKAQLLQIQTELNNSKQEYEEFKELTRKRQLELESELQSLQKANLNLENLLEATKACKRQEVSQLNKIHAETLKIITTPTKAYQLHSRPVPKLSPEMGSFGSLYTQNSSILDNDILNEPVPPEMNEQAFEAISEELRTVQEQMSALQAKLDEEEHKNLKLQQHVDKLEHHSTQMQELFSSERIDWTKQQEELLSQLNVLEKQLQETQTKNDFLKSEVHDLRVVLHSADKELSSVKLEYSSFKTNQEKEFNKLSERHMHVQLQLDNLRLENEKLLESKACLQDSYDNLQEIMKFEIDQLSRNLQNFKKENETLKSDLNNLMELLEAEKERNNKLSLQFEEDKENSSKEILKVLEAVRQEKQKETAKCEQQMAKVQKLEESLLATEKVISSLEKSRDSDKKVVADLMNQIQELRTSVCEKTETIDTLKQELKDINCKYNSALVDREESRVLIKKQEVDILDLKETLRLRILSEDIERDMLCEDLAHATEQLNMLTEASKKHSGLLQSAQEELTKKEALIQELQHKLNQKKEEVEQKKNEYNFKMRQLEHVMDSAAEDPQSPKTPPHFQTHLAKLLETQEQEIEDGRASKTSLEHLVTKLNEDREVKNAEILRMKEQLREMENLRLESQQLIEKNWLLQGQLDDIKRQKENSDQNHPDNQQLKNEQEESIKERLAKSKIVEEMLKMKADLEEVQSALYNKEMECLRMTDEVERTQTLESKAFQEKEQLRSKLEEMYEERERTSQEMEMLRKQVECLAEENGKLVGHQNLHQKIQYVVRLKKENVRLAEETEKLRAENVFLKEKKRSES [KIF15]	0.087	48.4 °C	49.4 °C	-0.0831	0.584	1.61
MAPKFPDSVEELRAAGNESFRNGQYAEASALYGRALRVLQAQGSSDPEEESVLYSNRAACHLKDGNCRDCIKDCTSALALVPFSIKPLLRRASAYEALEKYPMAYVDYKTVLQIDDNVTSAVEGINRMTRALMDSLGPEWRLKLPSIPLVPVSAQKRWNSLPSENHKEMAKSKSKETTATKNRVPSAGDVEKARVLKEEGNELVKKGNHKKAIEKYSESLLCSNLESATYSNRALCYLVLKQYTEAVKDCTEALKLDGKNVKAFYRRAQAHKALKDYKSSFADISNLLQIEPRNGPAQKLRQEVKQNLH [TOMM34]	0.584	47.4 °C	48.8 °C	0.108	0.535	1.04
MAPNIYLVRQRISRLGQRMSGFQINLNPLKEPLGFIKVLEWIASIFAFATCGGFKGQTEIQVNCPPAVTENKTVTATFGYPFRLNEASFQPPPGVNICDVNWKDYVLIGDYSSSAQFYVTFAVFVFLYCIAALLLYVGYTSLYLDSRKLPMIDFVVTLVATFLWLVSTSAWAKALTDIKIATGHNIIDELPPCKKKAVLCYFGSVTSMGSLNVSVIFGFLNMILWGGNAWFVYKETSLHSPSNTSAPHSQGGIPPPTGI [SYPL1]	-0.227	56.1 °C	56.9 °C	0.0843	-3.54	-3.06
